This test addresses NStr-M35_S, M35 short version (aa 2-452) with N-terminal Twin-Strep tag and TEV cleavage sequence (murine cytomegalovirus (MCMV)). Description: SEC-MALS. (In gel filtration, larger molecules generally elute earlier.)

For the substance “NStr-M35_S, M35 short version (aa 2-452) with N-terminal Twin-Strep tag and TEV cleavage sequence (domain or fragment)”, the stoichiometry N (commonly the number of molecules, sites or subunits per partner or assembly) stood at 2.
